Target: the molecule itself
Experiment: SEC

Protein	stoichiometry N
LexAPaS125A (full-length P. aeruginosa LexA carrying the S125A mutation in the catalytic dyad) (natural protein, Pseudomonas aeruginosa (ATCC 27853), UniProt P37452 1-204, looked up) MQKLTPRQAEILSFIKRCLEDHGFPPTRAEIAQELGFKSPNAAEEHLKALARKGAIEMTPGASRGIRIPGFEPHAANDDEGLPVIGRVAAGAPILAEQNIEESCRINPAFFNPRADYLLRVRGMAMKDIGILDGDLLAVHVTREARNGQVVVARIGEEVTVKRFKREGSKVWLLAENPEFAPIEVDLKEQELIIEGLSVGVIRR	2
LexAPa^CTD G91D (LexAPa C-terminal domain, Gly81 to Arg204, with the inactivating G91D mutation on the cleavage site) (domain or fragment, Pseudomonas aeruginosa (ATCC 27853), UniProt P37452 81-204, looked up) GLPVIGRVAADAPILAEQNIEESCRINPAFFNPRADYLLRVRGMSMKDIGILDGDLLAVHVTREARNGQVVVARIGEEVTVKRFKREGSKVWLLAENPEFAPIEVDLKEQELIIEGLSVGVIRR	2

From publication PMC11787620 (iScience, 2025)
